Source: article PMC9765176, “Infant Antibody Repertoires during the First Two Years of Influenza Vaccination” (mBio, 2022)

Key:
[1] = molecular target: T1, recombinant hemagglutinin B/Brisbane/2008, full-length construct (full-length soluble ectodomain, FLsE) (influenza B virus B/Brisbane/60/2008, UniProt C0LT35, strain); assay: multiplex bead assay (Luminex); conditions: one partner purified
T1 construct: also called B/Brisbane/60/2008; B/Vic

[2] = molecular target: T2, recombinant hemagglutinin B/Brisbane/2008, head construct (trimeric, head-only) (influenza B virus B/Brisbane/60/2008, UniProt C0LT35, strain); assay: multiplex bead assay (Luminex); conditions: one partner purified
T2 construct: also called rHA head

B1: year 2 postvaccination Bmem BCR of infant 1, clonally related to the most abundant IBV HA-specific plasma IgG clonotype (antibody, V domains shown)
VH: EVQLVESGGGLVQPGGSLRLSCAASGFTFRSYEMNWVRQAPGKGLEWISYISGSGGTIYYADSVKGRFTISRDNARNSLYLQMNSLRAEDTAVYYCARDLRGIGDYWGQGTLVTVSS
VL: SSELTQDPAVSVALGQTVRITCQGDSLRSYYASWYQQKPGQAPVLVIYGESNRPSGIPDRFSGSSSGNTASLTITGAQAEDEADYYCNSRDNSGNLYVFGSGTKVTVL
Question: What does the source list for B1?
Answer: binding result [1]: binds; binding result [2]: no binding
